Assay results published in the RNAGym collection of RNA variant scans (doi:10.1073/pnas.2313332121).
Fewer inactive variants are shown than the library holds.

B1: TPR 5TU (parent)
chain: GGAUCUUCUCGAUCUAACAAAAAAGACAAAUCUGCCACAAAGCUUGAGAGCAUCUUCGGAUGCAGAGGCGGCAGCCUUCGGUGGCGCGAUAGCGCCAACGUUCUCAACUAUGACACGCAAAACGCGUGCUCCGUUGAAUGGAGUUUAUCAUG

Variants of: B1
Experiment: polymerase ribozyme fitness, log enrichment relative to wild type (log ratio); higher = more active; in vitro selection for triplet polymerase activity
Outline: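 Mutant libraries of both subunits of a heterodimeric triplet polymerase ribozyme were PCR-built, transcribed, and selected once in triplicate, with frozen incubation at −7 °C and capture of gel-excised extended constructs on streptavidin beads before RT-PCR. Illumina sequencing of input and output libraries was filtered to genotypes with ≥10 input reads and ≥1 read per output. Fitness is the logarithm of genotype enrichment over wild-type enrichment, using inverse-variance-weighted replicate averages. The logarithm is base 2.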
With GGAUCUUCUCGAUCUAACAAAAAAGACAAAUCUGCCACAAAGCUUGAGAGCAUCUUCGGAUGCAGAGGCGGCAGCCUUCGGUCGCGCGAUAGCGCCAACGUUCUCAACUAUGACACGAAAAACGCGUGCUCCGUUGAAUGGAGUUUAUCAUG the “polymerase ribozyme fitness (log ratio)” value was -1.14. In the case of GGAUCUUCUCGAUCUAACAAAAAAGACAAAUCUGCCACAAAGCUUGAGAGCAUCAUCGGAUGCAGAGGCGGCAGCCUUCGGUUGAGCGAUAGCGCCAACGCUCUCAACUAUGACAAGCAAAACGCGUGCUCCGUUGAAUGGAGUUUAUCAUG, the “polymerase ribozyme fitness (log ratio)” value is reported as at most -4.2. For GGAUCUUCUCGGUCUAACAAAAAAGACAAAUCUGCCACAAAGCUUGAGAGCAUCUUCGGAUGCAGAGGCGGCAGGCUUCGGUGGCGCGAUAGCGCCAACGUUCUCAACUAUGACACGCCAAACGCGUGCUCCGUUGAAUGGAGUUUAUCAUG, the “polymerase ribozyme fitness (log ratio)” value was -3.34. In the case of GGAUCUUCUCGAUCUAACAAAAAAGACAAAUCUGCCACAAAGCUUGACAGCAUCUUCGGAUGCAGAGGCGGCAGCCUUCGGUGACGCGAUAGCGCCAACGUUCUCAACUAUGACACGCAAAACGCGUGCUCCGUUGAAUGGAAUUUAUCAUG, the “polymerase ribozyme fitness (log ratio)” value is reported as -2.38. In the case of GGAUCUUCUCGAUCUAACAAAAAAGACAAAUCUGCAACAAAGCUUGAGAGCAUCUUCGGAUGCAGAGGCGGCAGCCUUCGGUGGCGCGAUAGCGCCAACGUUCUCAACUAUGACAAGCAAAACGCGUGCUCCGUUGAAUGGAGUUUAUCAUG, the “polymerase ribozyme fitness (log ratio)” value is reported as -3.76. With GGAUCUUCUCGAUCUAACAAAAAAGACAAAUCUGCCACAAAGCUUGAGAGCAUCUUCGGAUGCAGAGGCGGCGGCCUUCGGUGACGCGAUAGCGCCAACGUUCUCAACUAUGACACGCAAAACGCGUGCUCCGUUGAAUGGAGUUUAUCAUG the “polymerase ribozyme fitness (log ratio)” value was -0.268. With GGAUCUUCUCGAUCAAACAAAAAAGACAAAUCUGCCACAAAGCUUGAGAGCAUCUUCGGAUGCAGAGGCGGCUGCGUUCGGUGGCGCGAUAGCGCCAACGUUCUCAACUAUGACACGAAAAACGCGUGCUCCGUUGACUGCAGUUUAUCAUG the “polymerase ribozyme fitness (log ratio)” value was at most -4.2. For GGAUCUUCUCGAUCUAACAAAAAAGACAAAUCUGCAACAAAGCUUGAGUGCAUCUUCGGAUGUAGAGGCGGCAGCCUUGGGUGGCGUGAUAGCGCCAACGUUCUCGACUAUGACACGCAAAACGCGUGCUCCAUUGAAUGGAGCUUAUCAUG, the “polymerase ribozyme fitness (log ratio)” value was at most -4.2. In the case of GGAUCUUCUCGAUCUAACAAAAAAGACAAAUCUGCCACAAAGCUUGAGAGCAUCUUCGGAGGCAGAGGCGGCAGCCUUCGGUGGCGCGAUAGCGCCAACGUUCUCAACUAUGACACGCAAAACGCGUGCUCCGUUGAAUGGAGUUUAUCAUG, the “polymerase ribozyme fitness (log ratio)” value is reported as -1.25. In the case of GGAUCUUCUCGAUCUAACAAAAAAGACAAAUCUGCCACAAAGCUUGAGAGCAUCUUCGGAUGCAGAGGCGGCAGCCUUCGGUGGGGCGAUAGCGCCAACGUUCUCAACUAUGACACGCAAAACGCGUGCUCCGUUGAAUGGAGUUUAUCGUG, the “polymerase ribozyme fitness (log ratio)” value is reported as -2.67. For GGAUCUUCUCGAUCUAACAAAAAAGACAAAUCUGCCACAAAGCUUGAGAGCAUCUUCGUAUGCAGAGGCGGCAGCCUUCGGUGGCGCGAUAGCGUCAACGUUCUCAACUAUGACACGCAAAACGCGUGCUCCUUUGAAUGGAGUUUAUCAUG, the “polymerase ribozyme fitness (log ratio)” value was at most -4.2. For GGAUCUUCUCGACCUAACAAAAAAGACAAAUCUGCCACAAAGCUUGAGAGCAUCUUCGGAUGCAGAGGCGGCAGCCUUCGGUGGCGCGAUAGCGCAAAUGUUCUCAACUAUGACACGCAAAACGCGUGCUCCGUUGAAUGGAGUUUAUCAUG, the “polymerase ribozyme fitness (log ratio)” value was -1.75. For GGAUCUUCUCGAUCUAACAAAAAAGACAAAUCUGCCACAAAGCUUGAGAGCAUCUUCGCAUGCAGAGGCGGCAGCCUUCGGUGGCCCGAUAGCGCCAACGUUCUCAACUAUGACACGCAAAACGCGUGCUCCGUUGAAUGGAGUUUAUCAUG, the “polymerase ribozyme fitness (log ratio)” value was -3.39. With GGAUCUUCACGAUCUAACAAAAAAGACAAAUCUGCCACAAAGCUUGAGAGCAUCUUCGGAUGCAGAGGCGGCAGCCUUCGGUGGCGCGAUAGCACCAACGUUCUCAACUAUGACACGCAAAACGCGUGCUCCGUUGAAUGGAGUUUAUCAUG the “polymerase ribozyme fitness (log ratio)” value was -3.69. In the case of GGAUCUUCUCGAUCUAUCAAAAAAGACAAAUCUGCCACAAAGCUUGAGAGCAUCUUCGGAUGCAGAGGCGGCAGCCGUCGGUGGCGGGAUACCGCCAACGUUCUCAACUAUGACACGCCAAACGCGUGCUCCGUUGAAUGGAGUUUAUCAUG, the “polymerase ribozyme fitness (log ratio)” value is reported as at most -4.2. For GGAUCUUCUCGAUGUAACAAAGAAGACAAAUCUGCCACAAAGCUUGAGAGCAUCUUCGGAUGCAGAGGCGGCAGCCUUCGGUGGCGCGAUAGCACCAACGUUCUCAACUAUGACACGGAAAACGCGUGCUCCGUUGAAUGGAGUUUAUCCUG, the “polymerase ribozyme fitness (log ratio)” value was at most -4.2. For GGAUCUUCUCGAUAUAACAAAAAAGACAUAUCUGCCACAAAGCUUGAGAGAAUCUUCGGAUGCAGAGGCGGCAGCCUUCGGUGGCGCGAUAGCGCGAACGUUCUCAACUAUGACCCGAAAAACGCGUGCUCCGUUGAAUGAAGUUUAUCAUG, the “polymerase ribozyme fitness (log ratio)” value was at most -4.2. With GGAUCUUCUCGCUCUAACAAAAAAGACAAAUCUGCCACACAGCUUGAGAGCAUCUUCGGAUGCAGAGGCGGCAGCCUUCGGUGGCGAGAUAGUCCCAACGUUCUCAACUGUGACACGCAAAACGCGUGCUCCGUUGAAUGGUGUUUAUCAUG the “polymerase ribozyme fitness (log ratio)” value was at most -4.2. For GGAUCUUCUCGAUCUAACAAAAAAGACAAAUCUGCCACAAAGCUUGAGAGCAUCUUCGGAUGCAGAGGCGGCAGCCUUCGGUGGCGCGAUAGCGCCAACGUUCUCAACUAUGACACGCGAAACGCGUCCUCCGUUGAAUGGAGUUUAUCAUG, the “polymerase ribozyme fitness (log ratio)” value was -1.98. With GGAUGUUCUCGAUCUAACAAAAAAGACAAAUCUGCCACAAAGCUUGAGAGCAUCUUCGGAUGCAGAGGCGGCAGCCUUCGGUGGCGCGAUAGCGCCAACGUUCUCAACUAUGACACGCAAAACGCGUGCUCCGUCGAAUGGAGUUUAUCAUG the “polymerase ribozyme fitness (log ratio)” value was -2.4. In the case of GGAUCUUCUCGAUCUAACAAAAAAGACAAAUCUGCCACAAAGCUUGAGAGCAUCAUCGGAUGCAGAGGCGGCAGCCUUCGGUAGCGCGAUAGCGCCAACGUUCUCAACUAUGACACGCAAAACGCAUGCUCCGUUGAAUGGAGUUUAUCAUG, the “polymerase ribozyme fitness (log ratio)” value is reported as 0.425. With GGAUCUUCUCGAUCUAACAAAAAAGACAAAUCUGCCACAAAGCUUGAGAGCAUCAUCGGAUGCAGAGGCGGCAGCCUUCGGUGGCGCGAUAGCGCCAACGUUCUCAACUAUGACAUGCAAAACGCGUGCUCCGUUGAAUGGAGUUUAUCAUG the “polymerase ribozyme fitness (log ratio)” value was -0.684. With GGAUCUUCUCGAUCUAACAAAAAAGACAAAUCUGCCACCAAGCUUGAGUGCAUCUUCGGAUGCAGAGGUGGCAGCCUUCGGUGGAGCGAUAGCGCCAACGUUCUUAACUAUGACACGCAAAACGCGUGCUCCGUUGAAUGGAGUUUAUCAUG the “polymerase ribozyme fitness (log ratio)” value was at most -4.2. With GGAUCUUCUCGAUCUAACAAAAAAGACAAGUCUGCCACAAAGCUUAAGAGCAUCUUCGGAUGCAGAGGCCGCAGCCUGCGGUGGCCCGAUAGCGCCAACGUUCUCAACUAUGACACGCAAAACGCGUGCUCCGUUGAAUGGCGUUAAUCAUG the “polymerase ribozyme fitness (log ratio)” value was at most -4.2. In the case of GGAUCUUCUCGAUCUAACAAAAAAGACAAAUCUGCCACAAAGCUUGAGAGCAUCUACGGAUGCAGAGGCGGCAGCCUUCGGUGGCGCGAUAGUGCCAACGUGCUCAACUAUGACACGCAAAACGCGUGCUCCGUUGAAUAGAGUUUAUCAUG, the “polymerase ribozyme fitness (log ratio)” value is reported as at most -4.2. For GGAUCUUCUCGAUCUAACAAAAAAGACAAAUCUGCCACAAAGCUUGAGAGCAUCUUCGGAUGCAGAGGCGGCAGCCUUCGGUGGCGCGAUAGCGCCAACGUUCUCCACGAUGACACGCAAAACGCGUGCUCCGUUGAAUGGAGUUUAUCAUG, the “polymerase ribozyme fitness (log ratio)” value was -0.424. For GGAUCUUCUCGAUCUAACAAAAAAGACAAAUCUGACACAAAGCUUGAGAGCAUCUUCGGAUGCAAAGGCGGCAGCCUUCGGUGGCGCGAUAGCGCCAACGUUCUCAACUAUGACACGCAAAACGCGUGCUCCGUUGAAUGGAGCUUAUCAUG, the “polymerase ribozyme fitness (log ratio)” value was at most -4.2. With GGAUCUUCUCGAUCUUACAAAAAAGCCAUAUCUGCCACAAAGCUUGAGAGCAUCUUCGGAUGCAGAGCCGGCAGCCUUCGGUAGCGCGAUAGCGCCAACGUUCUCAACUAUGACACGCAAAACGCGUGCUCCGUUGAAUGGAGUUUAUCAUG the “polymerase ribozyme fitness (log ratio)” value was at most -4.2. With GGAUCUUCUCGAUCUAACAAAAAAGACAAAUCUGCCACAAAGCUUGAGAGCAUCUUCGGAUGCAGAGGCGGCAGCCUUCGGUGACGCGAUAGCGCCAACGUUCUCAAUUAUGACACGCAAAACGCGUGCUCCGUUGAAUGGAGUUUAUCAUG the “polymerase ribozyme fitness (log ratio)” value was -2.74. In the case of GGAUCUUCUCGAUCUAACAAAAAAGACAAAUCUGCCACAAAGCUUGAGAGCUUCUUCGGAUGCAGAGGCGGCAGCCUUCGUUGGCGCGAUAGCGCUAACGUUCUCAACUAUGAAACGCAAAACGCGUGCUCCGUUGAAUGGUGUUUAUCAUG, the “polymerase ribozyme fitness (log ratio)” value is reported as -3.93. With GGAUCUUCUCGAUCUAACGAAAAAGACAAAUCUGCCACAAAGCUUGAGAGCAUCUUCGGAUGCAGAGGCGGCAGCCUUCGGUGGCGCGAUAGAGCCAACGUUCUCAACUAUGUCACGCAAAACGCGUGCUCCGUUGAAUGCAGUUUAUCAUG the “polymerase ribozyme fitness (log ratio)” value was at most -4.2. With GGAUCUUCUCGAUCUCACAAAAAAGACAAAUCUGCCACAAAGCUUGAGAGCAUCUUCGGAUGCAGAGGCGGCAGCCUUCGGUGGCGUGAUAGCGCCAACGUUCUCAACUAUGACACGUAAAACGCGUGCUCCGUUGAAUGGAGUUUAUCAUG the “polymerase ribozyme fitness (log ratio)” value was -2.27. With GGAUCUGCUCGAUCUAACACAAAAGACAAAUCUGCCAAAAAGCUUGAGAGCAUCUUCGGAUGCAGAGGCGGCAGCCUUCGGUAGCGCGAUAGCGCCAACGUUCUCAACUAUGACACGCAAAACGCGUGCUCCGUUGAAUGGAGUUUAUCAUG the “polymerase ribozyme fitness (log ratio)” value was -3.16. In the case of GGAUCUUCUCGAUCGAACAAAAAAGACAAAUCUGCCACAAAGCUUGAGAGCAUCUUCGGAUGCAGAGGCGGUAGCCUUAGGUGGCGCGAUAGUUCAAACGUUCUCAACUAUGACACGCAAAACGCGUGCUCCGUUGAAUAGAGUUUAUCAUG, the “polymerase ribozyme fitness (log ratio)” value is reported as at most -4.2. For GGAUCUUCUCGAUCUAACAAAAAAGACAAAUCUGCCACAAAGCUUGAGAGCAUCUUCGGAUGCAGAGGCGGCAGCCUUCGGUGGCGCGUUAGCGCCAACGUUCUCAACUAUGACGCGCAAAACGCGUGCUCCGUUGAAUGGAGUUUAUCAUG, the “polymerase ribozyme fitness (log ratio)” value was -1.6. With GGAUCUUCUCGAUCUCACAAAGAAGACAAAUCUGCCACAAAGCUUGAGAGCAACUUCGGAUGCAGAGGCGGCAGCCUUCGGUGGCGCGAUAUCGCCAACGUUCUCAACUAUGACACGCAAAACGCGUGCUCCGUUGAAUGGAGUUUAUCAUG the “polymerase ribozyme fitness (log ratio)” value was -2.34. With GGAUCUUCUCGAUCUAACAAAAAAGACAAAUCUGCCACAAAGCUUGAGAUCAUCUUUGGAUGCAGAGGCGGCAGCCUUCGGUGGCGCGAUAGCGCCAACGUUCUCAACUGUGACACGCAAAACGCGUGCUCCGUUGAAUAGAGUUUAUCAUG the “polymerase ribozyme fitness (log ratio)” value was at most -4.2. For GGAUCUUCUCGAUCUAACAAAAAAGACAAAUCUGCCACAAAGCUUGAGAGCAUCUUUGGAGGCAGAGGCGGCAGCAUUCGGUGGCGCGAUAGCGCCAACGUUCUCAACUAUGACACGCAAAACGCGUGCUCCGUUGAAUGGAGUUUAUCAUG, the “polymerase ribozyme fitness (log ratio)” value was at most -4.2.
